Assay results reported in US20200165354A1 (WUXI BIOLOGICS IRELAND, published 2020).
Residue numbers refer to the chain shown, from its start. Values belong to the molecule of their own block, whether it stands above or below them.

Columns and labels:
[1] = biological target: human PCSK9 (construct not stated) (human) (UniProt Q8NBP7); assay: cell-based or functional assay
[2] = biological target: human PCSK9 with C-terminal 6-His tag, biotin-labelled (PCSK9-His-biotin) (human) (UniProt Q8NBP7); assay: ELISA binding to human PCSK9
[3] = biological target: human PCSK9 with C-terminal murine Fc, biotin-labelled (PCSK9-mFc-biotin) (human) (UniProt Q8NBP7); assay: blocking ELISA, binding of PCSK9 to LDL-R
[4] = biological target: T1, human PCSK9 with C-terminal murine Fc, biotin-labelled (PCSK9-mFc-biotin) (human, UniProt Q8NBP7 31-692, limits assumed, biotin-labelled, site not stated); assay: competition ELISA, antibody premixed with PCSK9-mFc-biotin, binding to coated LDL-R
T1 construct: not shown: murine Fc (mFc) fused at the C-terminus
Procedure: Blocking assay by ELISA: Plates (Nunc) were coated with LDL-R overnight at 4° C. Hybridoma supernatants were mixed with 250 ng/ml PCSK9-mFc-biotin and incubated at 4° C. overnight. After blocking and washing, the mixture were added to the plates and incubated for 1 h. The plates were then washed and subsequently incubated with streptavidin-HRP. After washing, TMB substrate was added and the interaction was stopped by 2M HCl. The absorbance at 450 nm was read using a microplate reader (Molecular Device).
(§1) Binding and blocking activities were confirmed using purified antibodies (FIGS. 1 and 2).

[5] = biological target: T2, human PCSK9 (construct not stated) (human, UniProt Q8NBP7 31-692, limits assumed); assay: SPR Biacore T200, antibody captured by anti-Fc antibody, PCSK9 as analyte, 1:1 fit
T2 construct: Analyte in SPR (molecular weight of 85 KDa used for the molar concentration), added at 20 ug/ml in LDL-uptake assays; biotin-labelled in the serum stability ELISA; also called wild type PCSK9; Biotin-labeled PCSK9
Procedure: (§2) Antibody binding affinity to human and rhesus PCSK9 was detected by SPR assay using Biacore T200 (GE). Each antibody was captured on anti-murine IgG Fc antibody (GE) or anti-human IgG Fc antibody (Genway) immobilized CM5 sensor chip (GE). Human or rhesus PCSK9 at different concentrations were injected over the sensor chip at a flow rate of […] for an association phase of 180 s, followed by 1200 s dissociation. The chip was regenerated by 2 M MgCl₂ after each binding cycle.
(§3) The sensorgrams for blank surface and buffer channel are subtracted from the test sensorgrams. The experimental data was fitted by 1:1 model using Langmiur analysis. Molecular weight of 85 KDa was used to calculate the molar concentration of analyte.
Kinetic affinity by SPR: the affinities of selected clones binding to human PCSK9 were measured by SPR assay.

[6] = biological target: T2, human PCSK9 (construct not stated); assay: cell-based or functional assay
[7] = biological target: T3, rhesus PCSK9-His (Sino Biological) (rhesus monkey, UniProt A8T666 31-692, limits assumed); assay: ELISA, rhesus PCSK9-His captured on anti-His antibody
T3 construct: also called rhesus monkey PCSK9; monkey PCSK9
T3 sequence (A8T666 31-692 limits assumed): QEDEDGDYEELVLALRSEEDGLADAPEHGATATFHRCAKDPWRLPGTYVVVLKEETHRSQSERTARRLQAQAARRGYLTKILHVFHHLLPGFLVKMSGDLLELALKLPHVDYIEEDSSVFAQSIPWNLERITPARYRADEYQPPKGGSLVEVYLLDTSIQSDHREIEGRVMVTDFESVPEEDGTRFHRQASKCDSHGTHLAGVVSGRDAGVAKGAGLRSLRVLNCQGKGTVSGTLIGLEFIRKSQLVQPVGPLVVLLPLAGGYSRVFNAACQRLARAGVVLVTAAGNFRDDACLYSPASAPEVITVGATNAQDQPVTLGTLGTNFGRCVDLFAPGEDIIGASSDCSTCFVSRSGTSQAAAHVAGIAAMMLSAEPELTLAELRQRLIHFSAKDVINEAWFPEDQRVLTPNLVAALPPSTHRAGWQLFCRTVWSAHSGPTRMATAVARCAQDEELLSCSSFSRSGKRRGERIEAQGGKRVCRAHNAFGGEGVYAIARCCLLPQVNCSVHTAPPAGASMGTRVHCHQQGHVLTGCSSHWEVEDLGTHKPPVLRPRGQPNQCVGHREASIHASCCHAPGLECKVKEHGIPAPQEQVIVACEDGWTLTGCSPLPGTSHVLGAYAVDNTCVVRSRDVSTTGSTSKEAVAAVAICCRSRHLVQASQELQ
Procedure: ELISA plates (Nunc) were coated with anti-His antibody (Genscript) at 1 μg/ml overnight at 4° C. After blocking and washing, 1 μg/ml rhesus PCSK9-His (Sino Biological) was added and incubated for 1 h. The antibody samples were added to the plates and incubate at room temperature for 1 h. The plates were then washed and subsequently incubated with secondary antibody goat anti mouse-IgG-Fc-HRP (Bethyl) for 45 min. After washing, TMB substrate was added and the interaction was stopped by 2M HCl. The absorbance at 450 nm was read using a microplate reader (Molecular Device).
Binding to monkey PCSK9: the affinity of selected antibodies binding to rhesus monkey PCSK9 was measured by ELISA (see FIG. 4).

[8] = biological target: T4, human PCSK9 with C-terminal 6-His tag, biotin-labelled (PCSK9-His-biotin) (human, UniProt Q8NBP7 31-692, biotin-labelled, site not stated); assay: ELISA, purified antibody on PCSK9-His-biotin captured on streptavidin
T4 construct: Made in HEK293, purified on Ni column
Procedure: Binding assay by ELISA: Plates (Nunc) were coated with Streptavidin at 1 μg/ml overnight at 4° C. After blocking and washing, 250 ng/ml PCSK9-His-biotin was added and incubated for 1 h. Then hybridoma supernatants were transferred to the plates and incubate at room temperature for 1 h. The plates were then washed and subsequently incubated with secondary antibody goat anti mouse-IgG-Fc-HRP (Bethyl) for 1 h. After washing, TMB substrate was added and the interaction was stopped by 2M HCl. The absorbance at 450 nm was read using a microplate reader (Molecular Device).
as §1

[9] = biological target: T2, human PCSK9 (construct not stated); assay: ELISA, biotin-labelled PCSK9 on a streptavidin plate, antibody in human serum, 3 days at 37 C, goat anti-human-HRP, OD450
Procedure: (§4) After incubation at 37° C., samples were rapidly frozen in dry-ice-ethanol bath and kept at −80° C. The samples were rapidly thawed before stability test. The plates were coated with streptavidin in Na₂CO₃/NaHCO₃ (pH 9.2) buffer at 4° C. overnight. The plates were washed with 0.1% Tween-PBS once before being blocked with 2% BSA/PBS. Biotin-labeled PCSK9 was added and incubated for 1 hr. After washing, then diluted serum samples were transferred to the plates and incubated for 1 hr at room temperature. Goat anti-human-HRP antibody were added to the wells and incubated for 1 hr. After washing, TMB substrate was added and the interaction was stopped by 2 M HCl. The absorbance at 450 nm was read using a microplate reader (Molecular Device).
(§5) The antibody binding to human PCSK9 was tested by ELISA after incubation in human serum at 37° C.

[10] = biological target: T2, human PCSK9 (construct not stated); assay: SPR Biacore, antibody captured, human PCSK9 as analyte
Procedure: as §2, §3

[11] = biological target: T5, rhesus (monkey) PCSK9, SPR analyte, construct not stated (rhesus monkey, UniProt A8T666 31-692, limits assumed); assay: SPR Biacore, antibody captured, monkey PCSK9 as analyte
T5 construct: also called rhesus PCSK9
T5 sequence (A8T666 31-692 limits assumed): as above
Procedure: as §2, §3

[12] = biological target: T4, human PCSK9 with C-terminal 6-His tag, …; assay: ELISA binding to human PCSK9
[13] = biological target: T1, human PCSK9 with C-terminal murine Fc, …; assay: blocking ELISA, binding of PCSK9 to LDL-R
[14] = biological target: T2, human PCSK9 (construct not stated); assay: ELISA, biotin-labelled PCSK9 on a streptavidin plate, antibody in human serum, 0 days at 37 C, goat anti-human-HRP, OD450
Procedure: as §4, §5

[15] = biological target: T2, human PCSK9 (construct not stated); assay: SPR, human PCSK9
[16] = biological target: T5, rhesus (monkey) PCSK9, SPR analyte, …; assay: SPR, monkey PCSK9
Procedure: as §2, §3
The binding activity of engineered antibody was evaluated by SPR affinity test.

- IC50 (nM), LDL-uptake assay, HepG2 [1]: 77.6 nM
- IC50 (nM), LDL-uptake assay, Huh-7 [1]: 98.2 nM
- EC50 [2]: 0.038 nM
- IC50 [3]: 2.1 nM
Molecule: Repatha (evolocumab) (antibody)

- IC50 [4]: 3 nM
- Kd [5]: 0.0531 nM
- koff [5]: 5.43e-05 s⁻¹
- kon [5]: 1.02e+06 M⁻¹ s⁻¹
- IC50 (nM), LDL-uptake assay in HepG2 cells [6]: 72.5 nM
- Kd [7]: 0.5 nM
- EC50 [8]: 0.14 nM
B1: 2.12.12.4 (antibody, V domains shown)
VH: EVQLQQSGPELVKPGASVKMSCEASGYTFTNYVMHWVKQKPGQGLEWIGYINPYNDYIKYNEKFKGKATLTSDKSSSTTYLEVSSLTSEDSAVYYCGRQRYYGYRPYYAMDYWGQGTSVTVSS
VL: NIVLTQSPASLAVSLGQRATISCRASESVDGYGNVFMHWYQQKPGQPPKLLIYLASNLESGVPDRFSGSGSRTDFTLTIDPVEADDAATYYCQQNNKDPWTFGGGTKLEIK
notes: Mouse monoclonal antibody purified from hybridoma supernatant; also called parental murine antibody

- EC50 (read off the curve) [9]: ~0.07 nM
- Kd [10]: 0.0271 nM
- koff [10]: 2.67e-05 s⁻¹
- kon [10]: 984000 M⁻¹ s⁻¹
- Kd [11]: 0.379 nM
- koff [11]: 0.000303 s⁻¹
- kon [11]: 800000 M⁻¹ s⁻¹
- EC50 [12]: 0.026 nM
- IC50 [13]: 1.9 nM
- EC50 (read off the curve) [14]: ~0.06 nM
B2: 2.12.12.4-z4-uIgG4k (antibody, V domains shown)
VH: QVQLVQSGAEVKKPGSSVKVSCEASGYTFTNYVMHWVRQAPGQGLEWMGYINPYNDYIKYNEKFKGKATITADKSTSTAYMELSSLRSEDTAVYYCGRQRYYGYRPYYAMDYWGQGTLVTVSS
VL: B1 VL with N1D, L15P, S22T, D64A, R72G, D80N, D85N, A87T, T89N, L108V
notes: the chains here are derived by undoing them; Human constant region of IgG4 isotype, kappa light chain

- Kd [15]: 0.0423 nM
- koff [15]: 4.32e-05 s⁻¹
- kon [15]: 1.02e+06 M⁻¹ s⁻¹
- Kd [16]: 0.522 nM
- koff [16]: 0.000291 s⁻¹
- kon [16]: 558000 M⁻¹ s⁻¹
B3: 2.12.12.4-v2-z4-uIgG4k (antibody, V domains shown)
VH: B2 VH
VL: B1 VL with N1D, L15P, S22T, D30E, D64A, R72G, D80N, A87T, T89N, L108V
notes: Engineered humanized antibody with a human constant region of IgG4 isotype, kappa light chain; also called engineered antibody lead

- IC50 [4]: 8.5 nM
- Kd [5]: 1.08 nM
- koff [5]: 0.000148 s⁻¹
- kon [5]: 137000 M⁻¹ s⁻¹
- IC50 (nM), LDL-uptake assay in HepG2 cells [6]: 130 nM
- Kd [7]: 0.6 nM
- EC50 [8]: 0.14 nM
B4: 2.6.6 (antibody, V domains shown)
VH: QVQLQQPGAEVVKPGASVTVSCKASGYTFTSYWIHWVMQRPGQGLEWIGELNPSDGRTNYNEKFKNKATLTVDTSSSTVYMQLSSLTSEDSAVYYCARSNFYGSSSFANWGQGTLVTVSA
VL: EILLTQSPAIIAASPGEKVTITCSASSSVSYMNWYQQKPGSSPILWIYGISNLASGVPARFSGSGSGTSFSFTINNMEAEDVATYYCQQRSSYPPTFGGGTKLEIK
notes: Mouse monoclonal antibody purified from hybridoma supernatant; also called 2.6.6 (mouse antibody)

- Kd [10]: 2.11 nM
- koff [10]: 4.69e-05 s⁻¹
- kon [10]: 22200 M⁻¹ s⁻¹
- Kd [11]: 0.19 nM
- koff [11]: 3.78e-06 s⁻¹
- kon [11]: 19900 M⁻¹ s⁻¹
B5: 2.6.6-z4-uIgG1k (antibody, V domains shown)
VH: QVQLVQSGAEVKKPGASVKVSCKASGYTFTSYWIHWVRQAPGQGLEWMGELNPSDGRTNYNEKFKNKATMTVDTSTSTVYMELSSLRSEDTAVYYCARSNFYGSSSFANWGQGTLVTVSS
VL: DIQMTQSPSSLSASVGDRVTITCSASSSVSYMNWYQQKPGKAPKLLIYGISNLASGVPSRFSGSGSGTDFTFTISSLQPEDIATYYCQQRSSYPPTFGGGTKVEIK
notes: Humanized antibody of 2.6.6 with a human constant region of IgG1 isotype, kappa light chain
